From patent US20190248900A1 (Y BIOLOGICS, published 2019)

Experiments:
Assay in all cases: scFv-phage ELISA
[1] = biological target: T1, M6
T1 construct: also called PD1 mutant M6

[2] = biological target: T2, M3
T2 construct: also called PD1 mutant M3

[3] = biological target: T3, M13
T3 construct: also called PD1 mutant M13

[4] = biological target: T4, M9
T4 construct: also called PD1 mutant M9

[5] = biological target: T5, M1
T5 construct: also called PD1 mutant M1

[6] = biological target: T6, M10
T6 construct: also called PD1 mutant M10

[7] = biological target: T7, M5-2
T7 construct: also called PD1 mutant M5-2

[8] = biological target: T8, M12
T8 construct: also called PD1 mutant M12

[9] = biological target: T9, M11
T9 construct: also called PD1 mutant M11

[10] = biological target: T10, M1-1
T10 construct: also called PD1 mutant M1-1

[11] = biological target: T11, M2
T11 construct: also called PD1 mutant M2

[12] = biological target: T12, M1-2
T12 construct: also called PD1 mutant M1-2

[13] = biological target: T13, M4
T13 construct: also called PD1 mutant M4

[14] = biological target: T14, M5-1
T14 construct: also called PD1 mutant M5-1

[15] = biological target: T15, M5
T15 construct: also called PD1 mutant M5

[16] = biological target: T16, M7-1
T16 construct: also called PD1 mutant M7-1

[17] = biological target: T17, M2-2
T17 construct: also called PD1 mutant M2-2

[18] = biological target: T18, M14
T18 construct: also called PD1 mutant M14

[19] = biological target: T19, M7
T19 construct: also called PD1 mutant M7

[20] = biological target: T20, antigen PD1 (coated, construct not stated) (UniProt Q15116 25-170, limits assumed)
T20 construct: also called PD1 antigen; PDCD1

[21] = biological target: T21, ITGA6-Fc
T21 construct: Fc fusion
T21 sequence (P23229 whole entry, species assumed, looked up): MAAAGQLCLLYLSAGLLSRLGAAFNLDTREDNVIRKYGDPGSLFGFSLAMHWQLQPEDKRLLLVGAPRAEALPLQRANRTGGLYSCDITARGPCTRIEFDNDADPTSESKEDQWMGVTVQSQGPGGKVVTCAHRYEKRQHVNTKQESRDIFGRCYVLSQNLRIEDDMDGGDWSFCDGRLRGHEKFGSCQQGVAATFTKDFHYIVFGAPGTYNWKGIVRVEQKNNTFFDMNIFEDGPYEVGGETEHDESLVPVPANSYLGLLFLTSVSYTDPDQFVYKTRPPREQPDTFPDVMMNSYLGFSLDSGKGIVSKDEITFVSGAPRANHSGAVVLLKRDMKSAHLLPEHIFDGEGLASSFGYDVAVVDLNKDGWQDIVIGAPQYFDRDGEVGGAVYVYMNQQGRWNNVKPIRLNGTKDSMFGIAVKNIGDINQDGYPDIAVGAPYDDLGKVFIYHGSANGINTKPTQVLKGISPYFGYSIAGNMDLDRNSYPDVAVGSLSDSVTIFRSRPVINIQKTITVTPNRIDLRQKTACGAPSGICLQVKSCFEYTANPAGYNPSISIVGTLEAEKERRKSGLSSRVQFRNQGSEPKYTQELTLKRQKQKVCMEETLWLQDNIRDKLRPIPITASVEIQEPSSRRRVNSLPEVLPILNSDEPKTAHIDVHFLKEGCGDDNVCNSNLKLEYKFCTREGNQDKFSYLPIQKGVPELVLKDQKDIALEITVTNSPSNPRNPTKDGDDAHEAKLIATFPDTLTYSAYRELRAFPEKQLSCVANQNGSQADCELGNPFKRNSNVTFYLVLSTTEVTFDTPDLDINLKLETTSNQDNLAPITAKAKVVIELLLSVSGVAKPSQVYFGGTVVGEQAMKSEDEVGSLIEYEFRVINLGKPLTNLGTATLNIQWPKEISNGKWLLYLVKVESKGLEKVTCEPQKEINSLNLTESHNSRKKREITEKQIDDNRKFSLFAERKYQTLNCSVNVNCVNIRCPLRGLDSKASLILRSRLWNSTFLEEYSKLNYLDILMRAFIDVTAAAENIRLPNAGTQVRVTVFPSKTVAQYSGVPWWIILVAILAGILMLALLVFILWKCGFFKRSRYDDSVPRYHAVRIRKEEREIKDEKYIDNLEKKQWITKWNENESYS

[22] = biological target: T22, M8
T22 construct: also called PD1 mutant M8

[23] = biological target: T23, M2-1
T23 construct: also called PD1 mutant M2-1

[24] = biological target: T24, M7-2
T24 construct: also called PD1 mutant M7-2

T20 sequence (Q15116 25-170 limits assumed): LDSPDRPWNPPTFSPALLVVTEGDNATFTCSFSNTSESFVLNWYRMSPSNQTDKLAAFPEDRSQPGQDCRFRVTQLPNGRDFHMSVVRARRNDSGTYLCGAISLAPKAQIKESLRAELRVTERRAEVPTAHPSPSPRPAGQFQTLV

B1: PD1-29H3 (antibody, V domains shown)
VH: QMQLVESGGNLVQPGRSLRLSCAASGFTFDDYGMHWVRQAPGKGLEWVSSISWNSGTIGYADSVKGRFTISRDNAKNSLYLQMNSLRSEDTAVYYCARLLHQMNEHEFMDVWGQGTTVTVSS
VL: QLVLTQPSSMSEAPGQRVTISCSGGTSNIGTNAVNWYQQPPGKAPTLLIYYDDRLTSGVSDRFSGSKSGTSASLAISRLQSEDEADYYCAAWDDSLNGWVFGGGTKLTVL
notes: scFv-phage in the screening ELISA; later whole IgG
In the case of B1, the OD490 [1] is reported as 3.5, the OD490 [2] is reported as 2.3 and the OD490 [3] is reported as 3.5. It also gave an OD490 [4] of 3.4, an OD490 [5] of 1.5 and an OD490 [6] of 3. The OD490 [7] was 3.7, the OD490 [8] was 3 and the OD490 [9] was 1. It also gave an OD490 [10] of 3.2, an OD490 [11] of 0.7 and an OD490 [12] of 0.6. It also gave an OD490 [13] of 3.3, an OD490 [14] of 2 and an OD490 [15] of 2. The OD490 [16] was 1.5, the OD490 [17] was 3.2 and the OD490 [18] was 3.5. For the same binder, the OD490 [19] was 1.4, the OD490 [20] was 3.6 and the OD490 [21] was 0.3. The OD490 [22] was 2.2, the OD490 [23] was 2.8 and the OD490 [24] was 3.1.

B2: PD1-45F1 (antibody, V domains shown)
VH: QVQLVQSGAEVKKPGASVKLSCKASGYTFNSYYVHWVRQAPGQGLEWMGIINPSDGSATYAQKFQGRVTMTSDTSTSSVYMELSSLRSEDTAVYYCARDGNYYDSRGYYYDTFDMWGQGTLITVSS
VL: SYELTQDPAVSVALGQTVRITCQGDSLRTYYASWYQQKPGQAPILVIYGKNNRPSGIPDRFSGSSSGNTASLTITAAQAEDEADYYCNSRDSSGKSLVFGGGTKLTVL
notes: as for B1
B2 gave an OD490 [1] of 4, an OD490 [2] of 3.8 and an OD490 [3] of 2.2. It also gave an OD490 [4] of 3.8, an OD490 [5] of 3.9 and an OD490 [6] of 3.9. It also gave an OD490 [7] of 3.9, an OD490 [8] of 0.4 and an OD490 [9] of 3.8. The OD490 [10] was 3.9, the OD490 [11] was 3.8 and the OD490 [12] was 3.9. It also gave an OD490 [13] of 3.9, an OD490 [14] of 3.9 and an OD490 [15] of 3.8. It also gave an OD490 [16] of 3.9, an OD490 [17] of 4 and an OD490 [18] of 3.8. The OD490 [19] was 3.8, the OD490 [20] was 4 and the OD490 [21] was 0.1. It also gave an OD490 [22] of 3.9, an OD490 [23] of 3.9 and an OD490 [24] of 3.9.

B3: PD1-31F3 (antibody, V domains shown)
VH: QVQLVQSGAEVKKPGSSVKVSCKASGGTFSSYAISWVRQAPGQGLEWMGGIIPLFSTAHSAQKFQGRVTITADESSSTAYMELSSLRSEDTAVYYCAKHKGLPFDWSPDGFDTWGQGTMVTVSS
VL: QFVLTQPPSVSGAPGQRVIISCTGSSSNIGAGYDVHWYQQLPGTAPKVLIYGNSDRPSGVPDRFSASKSATSASLAITGLQAEDEADYYCQSYDSSLSGYVFGTGTKVTVL
notes: as for B1
Binder B3 has an OD490 [1] of 3.3, an OD490 [2] of 1.9 and an OD490 [3] of 3.3. For the same binder, the OD490 [4] was 3.2, the OD490 [5] was 3 and the OD490 [6] was 3. The OD490 [7] was 3.4, the OD490 [8] was 2.6 and the OD490 [9] was 0.8. The OD490 [10] was 3, the OD490 [11] was 0.7 and the OD490 [12] was 3.2. For the same binder, the OD490 [13] was 2.7, the OD490 [14] was 1.3 and the OD490 [15] was 1.1. The OD490 [16] was 0.8, the OD490 [17] was 3.3 and the OD490 [18] was 3.4. For the same binder, the OD490 [19] was 0.7, the OD490 [20] was 2 and the OD490 [21] was 0.4. For the same binder, the OD490 [22] was 1.7, the OD490 [23] was 3.5 and the OD490 [24] was 1.5.

B4: PD1-32A6 (antibody, V domains shown)
VH: QVQLVQSGAEVKKPGSSVKVSCKASGDTFTRNAVSWVRQAPGEGLEWMADIIPIFGSANYAQKFQGRLTLTADVSTSTAYMELSSLRSEDTAVYYCARTIEGAFDIWGQGTMVTVSS
VL: DIQMTQSPSSVSASVGDRVTITCRASQGIVSWLAWYQQKPGKAPRLLIYRASDLETGVPSRFSGSGSGTDFTLTISSLQPEDVATYYCQQADSFPLTFGGGTKVEIK
notes: as for B1
Work on B4 yielded an OD490 [1] of 2.9, an OD490 [2] of 3 and an OD490 [3] of 0.5. It also gave an OD490 [4] of 2.4, an OD490 [5] of 2.4 and an OD490 [6] of 2.5. The OD490 [7] was 2.8, the OD490 [8] was 2.7 and the OD490 [9] was 3.3. For the same binder, the OD490 [10] was 2.6, the OD490 [11] was 3.2 and the OD490 [12] was 2.8. For the same binder, the OD490 [13] was 2.4, the OD490 [14] was 3.6 and the OD490 [15] was 2.9. The OD490 [16] was 3.1, the OD490 [17] was 2.7 and the OD490 [18] was 1.7. For the same binder, the OD490 [19] was 3.2, the OD490 [20] was 3.5 and the OD490 [21] was 0.3. It also gave an OD490 [22] of 3.1, an OD490 [23] of 2.8 and an OD490 [24] of 2.8.

B5: PD1-42G4 (antibody, V domains shown)
VH: QVQLVESGGGLVKPGGSLRLSCAASGFTFSDYYMSWIRQAPGKGLEWVSDISASGNSIYYADSVKRRFTISRDNSKNSLYLQMNSLRAEDTAVYYCVTSGPFGEFRNWGLGTLVTVSS
VL: DIQMTQSPSSLSASVGDRVTTTCRASQGISSYLAWYQQKPGKAPKLLIYAASTLQSGVPSRFSGSGSGTDFTLTISSLQPEDFATYFCQQSYTSPRTFGQGTKLDIK
notes: as for B1
For B5, the OD490 [1] was 3.3, the OD490 [2] was 2 and the OD490 [3] was 3.7. It also gave an OD490 [4] of 3.4, an OD490 [5] of 1.8 and an OD490 [6] of 3.1. The OD490 [7] was 3.5, the OD490 [8] was 2.7 and the OD490 [9] was 1.7. The OD490 [10] was 2.9, the OD490 [11] was 0.6 and the OD490 [12] was 0.6. It also gave an OD490 [13] of 1.9, an OD490 [14] of 1.9 and an OD490 [15] of 1.6. It also gave an OD490 [16] of 2.8, an OD490 [17] of 3 and an OD490 [18] of 3.7. For the same binder, the OD490 [19] was 2.5, the OD490 [20] was 2.8 and the OD490 [21] was 0.4. For the same binder, the OD490 [22] was 2.1, the OD490 [23] was 0.6 and the OD490 [24] was 2.7.

B6: PD1-44B5 (antibody, V domains shown)
VH: QVQLVESGGGVVQPGRSLRLSCAASGFTFSSYAMHWVRQAPGKGLEWVAVISYDGSNKYYADSVKGRFTISRDNSKNTLYLQMNSLRAEDTAVYYCARLMHTFSVQYFLDVWGQGTTVTVSS
VL: QFVLTQSPSASGTPGQNIVISCSASTFNIGTTTVNWYQRLPGTAPKLLIYNYDQRPSGVPDRFSGSKSGTSASLAISGLQSEDEADYYCAAWDDSLNAWLFGGGTKLTVL
notes: as for B1
B6 was tested, and the OD490 [1] was 3.7, the OD490 [2] was 3.7 and the OD490 [3] was 3.7. The OD490 [4] was 3.7, the OD490 [5] was 3.8 and the OD490 [6] was 3.7. It also gave an OD490 [7] of 3.8, an OD490 [8] of 3.6 and an OD490 [9] of 3.8. For the same binder, the OD490 [10] was 3.6, the OD490 [11] was 3.7 and the OD490 [12] was 0.3. The OD490 [13] was 3.6, the OD490 [14] was 3.7 and the OD490 [15] was 3.7. The OD490 [16] was 3.7, the OD490 [17] was 3.7 and the OD490 [18] was 3.7. It also gave an OD490 [19] of 3.6, an OD490 [20] of 3.8 and an OD490 [21] of 0.3. For the same binder, the OD490 [22] was 3.5, the OD490 [23] was 3.6 and the OD490 [24] was 3.7.
